The supplement of paper PMC9112550, “Optimization of the antimicrobial peptide Bac7 by deep mutational scanning” (BMC Biology, 2022)

tested on: Escherichia coli TOP10; experiment: shrunken log2 fold change of peptide-encoding DNA abundance (4.5 h post-induction vs induction); higher = less antimicrobial activity (less host growth inhibition); details: time post-induction: 4.5 h; library: site-saturation at positions 5, 18, 19, 20
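Also: peptides expressed intracellularly from a pBAD plasmid library in pooled LB shake-flask culture, induced with 0.3% L-arabinose, DNA abundance read by NGS, three biological replicates, DESeq2 with apeglm shrinkage.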

Compared with RRIRPRPPRLPRPRPRPLPMPRP, RRIRQRPPRLPRPRPRPLVQPRP is lower in “shrunken log2 fold change” value: 0.53 for the first, -0.361 for the second.

Going from RRIRKRPPRLPRPRPRPCKWPRP to RRIRMRPPRLPRPRPRPPPLPRP, the “shrunken log2 fold change” value rises from 0.0523 to 1.58.

Compared with RRIRIRPPRLPRPRPRPVFQPRP, RRIRMRPPRLPRPRPRPMATPRP is higher in “shrunken log2 fold change” value: -0.19 for the first, 0.0129 for the second.

First: RRIRTRPPRLPRPRPRPALTPRP
Second: RRIRNRPPRLPRPRPRPPCQPRP
The “shrunken log2 fold change” value of the first is higher: 0.251 for the first, -0.294 for the second.

RRIRSRPPRLPRPRPRPNTVPRP and RRIRFRPPRLPRPRPRPLTIPRP are within 0.2 log units of each other in “shrunken log2 fold change” value: -0.308 for the first, -0.219 for the second.

RRIRMRPPRLPRPRPRPTSQPRP and RRIRTRPPRLPRPRPRPRVFPRP are within 0.2 log units of each other in “shrunken log2 fold change” value: 0.393 for the first, 0.212 for the second.

RRIRWRPPRLPRPRPRPMGGPRP and RRIRERPPRLPRPRPRPYDNPRP are within 0.2 log units of each other in “shrunken log2 fold change” value: 0.116 for the first, 0.033 for the second.

First: RRIRCRPPRLPRPRPRPVMDPRP
Second: RRIRDRPPRLPRPRPRPSPGPRP
The “shrunken log2 fold change” value of the first is lower: -0.0102 for the first, 0.241 for the second.

Compared with RRIRGRPPRLPRPRPRPFVEPRP, RRIRWRPPRLPRPRPRPPVWPRP is higher in “shrunken log2 fold change” value: 0.236 for the first, 0.478 for the second.

Going from RRIRARPPRLPRPRPRPYYYPRP to RRIRDRPPRLPRPRPRPIPWPRP, the “shrunken log2 fold change” value rises from -0.602 to 0.077.

First: RRIRGRPPRLPRPRPRPKNAPRP
Second: RRIRARPPRLPRPRPRPDGGPRP
The “shrunken log2 fold change” value of the first is higher: 1.91 for the first, 0.432 for the second.

Going from RRIRQRPPRLPRPRPRPKTRPRP to RRIRIRPPRLPRPRPRPQHQPRP, the “shrunken log2 fold change” value falls from 0.247 to -0.344.

RRIRKRPPRLPRPRPRPLDCPRP and RRIRVRPPRLPRPRPRPYSIPRP are within 0.2 log units of each other in “shrunken log2 fold change” value: -0.0764 for the first, 0.0569 for the second.

RRIRRRPPRLPRPRPRPEDVPRP and RRIRERPPRLPRPRPRPHGFPRP are within 0.2 log units of each other in “shrunken log2 fold change” value: -0.0417 for the first, -0.0632 for the second.

First: RRIRERPPRLPRPRPRPYIRPRP
Second: RRIRMRPPRLPRPRPRPGNWPRP
The “shrunken log2 fold change” value of the first is lower: -1.16 for the first, 0.561 for the second.

RRIRMRPPRLPRPRPRPADEPRP and RRIRFRPPRLPRPRPRPHGLPRP are within 0.2 log units of each other in “shrunken log2 fold change” value: -0.0062 for the first, 0.0196 for the second.

RRIRKRPPRLPRPRPRPEYSPRP and RRIRLRPPRLPRPRPRPTIRPRP are within 0.2 log units of each other in “shrunken log2 fold change” value: 0.0499 for the first, -0.0201 for the second.

First: RRIRYRPPRLPRPRPRPYFIPRP
Second: RRIRVRPPRLPRPRPRPGMAPRP
The “shrunken log2 fold change” value of the first is lower: -0.629 for the first, 0.183 for the second.

Going from RRIRYRPPRLPRPRPRPSKCPRP to RRIRSRPPRLPRPRPRPMIYPRP, the “shrunken log2 fold change” value falls from -0.00419 to -0.257.

RRIRERPPRLPRPRPRPKSWPRP and RRIRIRPPRLPRPRPRPRPGPRP are within 0.2 log units of each other in “shrunken log2 fold change” value: 0.715 for the first, 0.618 for the second.

Going from RRIRIRPPRLPRPRPRPITAPRP to RRIRCRPPRLPRPRPRPQYKPRP, the “shrunken log2 fold change” value falls from -0.592 to -0.991.

Compared with RRIRSRPPRLPRPRPRPQDEPRP, RRIRPRPPRLPRPRPRPVVRPRP is higher in “shrunken log2 fold change” value: -0.101 for the first, 0.116 for the second.

First: RRIRPRPPRLPRPRPRPPNEPRP
Second: RRIRYRPPRLPRPRPRPGKYPRP
The “shrunken log2 fold change” value of the first is higher: -0.0989 for the first, -0.466 for the second.

First: RRIRMRPPRLPRPRPRPLQEPRP
Second: RRIRNRPPRLPRPRPRPSAGPRP
The “shrunken log2 fold change” value of the first is higher: 2.68 for the first, -0.225 for the second.

RRIRIRPPRLPRPRPRPQWCPRP and RRIRQRPPRLPRPRPRPAVIPRP are within 0.2 log units of each other in “shrunken log2 fold change” value: 0.307 for the first, 0.135 for the second.

RRIRERPPRLPRPRPRPFRAPRP and RRIRCRPPRLPRPRPRPLQWPRP are within 0.2 log units of each other in “shrunken log2 fold change” value: 0.0204 for the first, -0.0609 for the second.

First: RRIRLRPPRLPRPRPRPPIVPRP
Second: RRIRKRPPRLPRPRPRPKGDPRP
The “shrunken log2 fold change” value of the first is lower: -0.531 for the first, -0.0351 for the second.

First: RRIRVRPPRLPRPRPRPFYGPRP
Second: RRIRVRPPRLPRPRPRPVARPRP
The “shrunken log2 fold change” value of the first is lower: -0.127 for the first, 0.223 for the second.

Going from RRIRFRPPRLPRPRPRPLWIPRP to RRIRERPPRLPRPRPRPPGIPRP, the “shrunken log2 fold change” value rises from -0.624 to -0.0106.

RRIRKRPPRLPRPRPRPESFPRP and RRIRIRPPRLPRPRPRPEHWPRP are within 0.2 log units of each other in “shrunken log2 fold change” value: 0.0651 for the first, 0.168 for the second.

Compared with RRIRKRPPRLPRPRPRPMILPRP, RRIRARPPRLPRPRPRPLADPRP is higher in “shrunken log2 fold change” value: -0.388 for the first, 0.42 for the second.

RRIRQRPPRLPRPRPRPLEIPRP and RRIRRRPPRLPRPRPRPWSRPRP are within 0.2 log units of each other in “shrunken log2 fold change” value: -0.106 for the first, 0.0777 for the second.

Going from RRIRMRPPRLPRPRPRPKGIPRP to RRIRARPPRLPRPRPRPRGWPRP, the “shrunken log2 fold change” value rises from 0.0647 to 1.07.

Compared with RRIRMRPPRLPRPRPRPYCFPRP, RRIRFRPPRLPRPRPRPNFGPRP is higher in “shrunken log2 fold change” value: -0.28 for the first, 0.0849 for the second.

Going from RRIRFRPPRLPRPRPRPQAIPRP to RRIRTRPPRLPRPRPRPKYWPRP, the “shrunken log2 fold change” value falls from 0.043 to -0.254.

RRIRLRPPRLPRPRPRPKEKPRP and RRIRNRPPRLPRPRPRPSYWPRP are within 0.2 log units of each other in “shrunken log2 fold change” value: -0.0145 for the first, -0.145 for the second.

RRIRNRPPRLPRPRPRPFGFPRP and RRIRTRPPRLPRPRPRPGTVPRP are within 0.2 log units of each other in “shrunken log2 fold change” value: -0.132 for the first, 0.0209 for the second.

RRIRHRPPRLPRPRPRPILNPRP and RRIRWRPPRLPRPRPRPDYFPRP are within 0.2 log units of each other in “shrunken log2 fold change” value: -0.186 for the first, -0.0991 for the second.

RRIRNRPPRLPRPRPRPPAAPRP and RRIRTRPPRLPRPRPRPGATPRP are within 0.2 log units of each other in “shrunken log2 fold change” value: 0.676 for the first, 0.572 for the second.

RRIRFRPPRLPRPRPRPCIQPRP and RRIRKRPPRLPRPRPRPDCKPRP are within 0.2 log units of each other in “shrunken log2 fold change” value: -0.0483 for the first, -0.0333 for the second.

RRIRNRPPRLPRPRPRPIVTPRP and RRIRPRPPRLPRPRPRPQVRPRP are within 0.2 log units of each other in “shrunken log2 fold change” value: -0.179 for the first, -0.13 for the second.

First: RRIRQRPPRLPRPRPRPLHFPRP
Second: RRIRLRPPRLPRPRPRPCSIPRP
The “shrunken log2 fold change” value of the first is higher: -0.0222 for the first, -0.678 for the second.

Compared with RRIRLRPPRLPRPRPRPEQTPRP, RRIRIRPPRLPRPRPRPWCGPRP is lower in “shrunken log2 fold change” value: -0.000687 for the first, -0.454 for the second.

First: RRIRIRPPRLPRPRPRPKNQPRP
Second: RRIRPRPPRLPRPRPRPQIEPRP
The “shrunken log2 fold change” value of the first is lower: -0.359 for the first, -0.0699 for the second.

Compared with RRIRKRPPRLPRPRPRPRTRPRP, RRIRQRPPRLPRPRPRPEPCPRP is lower in “shrunken log2 fold change” value: 0.618 for the first, -0.0944 for the second.

First: RRIRPRPPRLPRPRPRPCPWPRP
Second: RRIRTRPPRLPRPRPRPWIKPRP
The “shrunken log2 fold change” value of the first is higher: 0.889 for the first, -0.231 for the second.

RRIRIRPPRLPRPRPRPMPEPRP and RRIRSRPPRLPRPRPRPLHQPRP are within 0.2 log units of each other in “shrunken log2 fold change” value: -0.11 for the first, -0.248 for the second.

Compared with RRIRARPPRLPRPRPRPRCAPRP, RRIRNRPPRLPRPRPRPRYCPRP is lower in “shrunken log2 fold change” value: 0.716 for the first, -0.0932 for the second.

Compared with RRIRQRPPRLPRPRPRPNIHPRP, RRIRNRPPRLPRPRPRPMAYPRP is higher in “shrunken log2 fold change” value: -0.619 for the first, -0.161 for the second.

RRIRFRPPRLPRPRPRPLKRPRP and RRIRCRPPRLPRPRPRPRQMPRP are within 0.2 log units of each other in “shrunken log2 fold change” value: -0.227 for the first, -0.136 for the second.

RRIRNRPPRLPRPRPRPWKKPRP and RRIRVRPPRLPRPRPRPMVSPRP are within 0.2 log units of each other in “shrunken log2 fold change” value: -0.0178 for the first, -0.188 for the second.

First: RRIRRRPPRLPRPRPRPKYNPRP
Second: RRIRERPPRLPRPRPRPHKDPRP
The “shrunken log2 fold change” value of the first is lower: -0.384 for the first, 0.144 for the second.

RRIRMRPPRLPRPRPRPFYNPRP and RRIRIRPPRLPRPRPRPKRTPRP are within 0.2 log units of each other in “shrunken log2 fold change” value: -0.141 for the first, -0.198 for the second.

Going from RRIRVRPPRLPRPRPRPRHSPRP to RRIRSRPPRLPRPRPRPCTEPRP, the “shrunken log2 fold change” value falls from 0.292 to -0.241.
